Holding throughout (experiment): EMSA; 0.5 mM αKG, 10 mM Mg2+, 2 mM ascorbate; 50 mM Tris-HCl pH 8.0, 50 mM KCl, 10 mM MgCl2, 0.5 mM αKG, 2 mM sodium ascorbate; 1.2 µM DNA, 0.4-12.8 µM protein; 10 min 37 °C then 5 min on ice; 10% native PAGE, 0.5x TBE, 4-8 °C; Hill fit
Settings in all cases: protein: recombinant; tags: N-terminal His6; label: 5'-FAM on strand 1; blunt
(In general: Mobility shift assays separate free from complexed probe on a gel.)

The target of one data set is T1, ABH2 F124A (human, UniProt Q6NS38 1-261, F124A).
T1 sequence: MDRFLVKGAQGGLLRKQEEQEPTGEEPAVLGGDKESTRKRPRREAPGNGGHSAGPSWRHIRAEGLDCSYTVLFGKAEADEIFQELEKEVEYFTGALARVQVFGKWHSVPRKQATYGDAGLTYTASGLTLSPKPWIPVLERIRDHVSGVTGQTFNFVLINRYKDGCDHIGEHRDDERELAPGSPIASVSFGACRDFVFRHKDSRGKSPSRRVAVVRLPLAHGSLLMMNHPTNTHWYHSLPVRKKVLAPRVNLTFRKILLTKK

Another data set deals with T2, ABH2 R172A (human, UniProt Q6NS38 1-261, R172A).
T2 sequence: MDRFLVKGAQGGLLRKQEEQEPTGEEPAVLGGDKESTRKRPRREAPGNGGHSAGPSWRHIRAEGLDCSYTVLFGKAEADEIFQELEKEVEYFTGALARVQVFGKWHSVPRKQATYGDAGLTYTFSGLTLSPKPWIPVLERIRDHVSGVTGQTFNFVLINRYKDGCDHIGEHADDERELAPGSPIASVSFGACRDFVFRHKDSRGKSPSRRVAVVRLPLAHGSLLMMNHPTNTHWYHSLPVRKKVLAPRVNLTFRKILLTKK

The target in another data set is T3, ABH2 R110A (human, UniProt Q6NS38 1-261, R110A).
T3 sequence: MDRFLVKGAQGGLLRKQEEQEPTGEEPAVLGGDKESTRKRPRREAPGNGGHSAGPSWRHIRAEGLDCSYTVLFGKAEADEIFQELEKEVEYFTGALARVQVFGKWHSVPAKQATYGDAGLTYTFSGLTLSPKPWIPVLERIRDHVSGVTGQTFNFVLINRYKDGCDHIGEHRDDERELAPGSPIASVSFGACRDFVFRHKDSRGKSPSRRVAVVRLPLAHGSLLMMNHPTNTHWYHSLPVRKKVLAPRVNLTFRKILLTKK

A further data set concerns the target T4, ABH2 V99A (human, UniProt Q6NS38 1-261, V99A).
T4 sequence: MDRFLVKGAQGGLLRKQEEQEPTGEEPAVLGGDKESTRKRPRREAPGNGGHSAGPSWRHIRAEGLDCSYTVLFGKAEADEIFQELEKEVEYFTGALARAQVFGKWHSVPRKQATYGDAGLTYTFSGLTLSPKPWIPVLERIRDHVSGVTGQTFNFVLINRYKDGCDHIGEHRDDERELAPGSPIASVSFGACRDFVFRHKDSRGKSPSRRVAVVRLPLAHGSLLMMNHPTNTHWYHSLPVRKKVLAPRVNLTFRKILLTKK

A further data set deals with T5, ABH2 S125A (human, UniProt Q6NS38 1-261, S125A).
T5 sequence: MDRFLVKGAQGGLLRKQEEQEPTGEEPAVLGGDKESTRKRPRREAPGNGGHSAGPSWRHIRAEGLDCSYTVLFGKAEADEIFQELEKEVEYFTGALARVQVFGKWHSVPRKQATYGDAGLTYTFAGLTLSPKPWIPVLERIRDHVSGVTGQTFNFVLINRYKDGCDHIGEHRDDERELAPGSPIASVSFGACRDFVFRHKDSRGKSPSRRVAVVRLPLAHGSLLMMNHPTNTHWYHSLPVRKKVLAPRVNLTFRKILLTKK

Another data set deals with T6, ABH2 E175A (human, UniProt Q6NS38 1-261, E175A).
T6 sequence: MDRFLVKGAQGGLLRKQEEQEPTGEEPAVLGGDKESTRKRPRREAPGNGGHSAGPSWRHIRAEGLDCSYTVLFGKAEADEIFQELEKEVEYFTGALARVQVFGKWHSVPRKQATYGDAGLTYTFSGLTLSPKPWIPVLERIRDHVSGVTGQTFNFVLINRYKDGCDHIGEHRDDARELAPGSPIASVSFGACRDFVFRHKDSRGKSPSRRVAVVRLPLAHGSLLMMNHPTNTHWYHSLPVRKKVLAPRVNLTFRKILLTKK

B1: m3C dsDNA (dsDNA)
DNA 1: AGTTCAATGATCTTCAT
DNA 2: ATGAAGATCATTGAACT
modifications: N3-methylcytosine (m3C) at position 12 of strand 1
Take B1: the Kd was 4.4 ± 0.7 µM with ABH2 F124A; 2.6 ± 0.4 µM with ABH2 R172A; 4 ± 0.3 µM with ABH2 R110A; 2.5 ± 0.6 µM with ABH2 V99A; 4 ± 0.3 µM with ABH2 S125A; 2.96 ± 0.04 µM with ABH2 E175A.

B2: m1A dsDNA (dsDNA)
DNA 1: AGTTCAATGATCTTCAT
DNA 2: ATGAAGATCATTGAACT
modifications: N1-methyladenine (m1A) at position 10 of strand 1
As for B2, the Kd with ABH2 F124A was found to be 3.1 ± 0.3 µM; in the data set with ABH2 R172A, 2.1 ± 0.08 µM; with ABH2 R110A it was 3.4 ± 0.2 µM; in the data set with ABH2 V99A, 3.2 ± 0.3 µM; with ABH2 S125A, 2.7 ± 0.3 µM; in the data set with ABH2 E175A it was 2.44 ± 0.06 µM.

The Kd is the concentration at which binding is half-saturated.

The values are drawn from PMC12295762, “Role of Individual Amino Acid Residues Directly Involved in Damage Recognition in Active Demethylation by ABH2 Dioxygenase”.
